Measurements published in PMC2835468 (Matrix biology : journal of the International Society for …, 2009).

Target: T1, ADAMTS4-1 (full-length human ADAMTS-4, C-terminal FLAG-tag) (human, UniProt O75173 213-837)
T1 sequence (looked up): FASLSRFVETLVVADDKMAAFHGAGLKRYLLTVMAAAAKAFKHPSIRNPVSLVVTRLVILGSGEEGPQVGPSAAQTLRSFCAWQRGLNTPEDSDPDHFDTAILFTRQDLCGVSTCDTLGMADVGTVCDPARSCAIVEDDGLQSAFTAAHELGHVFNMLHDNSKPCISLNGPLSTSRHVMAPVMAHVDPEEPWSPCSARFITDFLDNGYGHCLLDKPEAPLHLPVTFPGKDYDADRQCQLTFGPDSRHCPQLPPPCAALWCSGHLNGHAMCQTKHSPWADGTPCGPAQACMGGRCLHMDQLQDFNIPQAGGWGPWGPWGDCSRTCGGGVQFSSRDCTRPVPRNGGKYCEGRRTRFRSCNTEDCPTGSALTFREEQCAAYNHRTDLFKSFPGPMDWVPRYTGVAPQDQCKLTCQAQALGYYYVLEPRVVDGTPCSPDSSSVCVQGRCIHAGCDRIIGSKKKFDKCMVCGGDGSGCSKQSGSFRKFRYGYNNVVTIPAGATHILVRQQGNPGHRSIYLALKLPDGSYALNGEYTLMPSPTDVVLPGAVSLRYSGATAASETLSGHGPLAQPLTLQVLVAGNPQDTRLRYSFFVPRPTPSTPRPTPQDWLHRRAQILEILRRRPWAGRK
Test: enzyme inhibition kinetics

B1: FLAG-tagged glycosylated human TIMP-3 (full-length tissue inhibitor of metalloproteinases 3), expressed in HEK293 (natural protein, UniProt P35625 24-211, looked up)
chain: CTCSPSHPQDAFCNSDIVIRAKVVGKKLVKEGPFGTLVYTIKQMKMYRGFTKMPHVQYIHTEASESLCGLKLEVNKYQYLLTGRVYDGKMYTGLCNFVERWDQLTLSQRKGLNYRYHLGCNCKIKSCYYLPCFVTSKNECLWTDMLSNFGYPGYQSKHYACIRQKGGYCSWYRGWAPPDKSIINATDP
modifications: glycosylated (only the 27 kDa glycosylated form remained after purification; single N-glycosylation site in the C-terminal domain)
Ki: 0.39 nM
